Test results taken from patent publication US20100280101, “METHOD OF INHIBITING CANCER CELL PROLIFERATION, PROLIFERATION INHIBITOR AND SCREENING METHOD” (University of Occupational and Environmental Health Japan, published 2010).

T1: ZNF143 (UniProt P52747 SEQ:1-638)
T1 sequence: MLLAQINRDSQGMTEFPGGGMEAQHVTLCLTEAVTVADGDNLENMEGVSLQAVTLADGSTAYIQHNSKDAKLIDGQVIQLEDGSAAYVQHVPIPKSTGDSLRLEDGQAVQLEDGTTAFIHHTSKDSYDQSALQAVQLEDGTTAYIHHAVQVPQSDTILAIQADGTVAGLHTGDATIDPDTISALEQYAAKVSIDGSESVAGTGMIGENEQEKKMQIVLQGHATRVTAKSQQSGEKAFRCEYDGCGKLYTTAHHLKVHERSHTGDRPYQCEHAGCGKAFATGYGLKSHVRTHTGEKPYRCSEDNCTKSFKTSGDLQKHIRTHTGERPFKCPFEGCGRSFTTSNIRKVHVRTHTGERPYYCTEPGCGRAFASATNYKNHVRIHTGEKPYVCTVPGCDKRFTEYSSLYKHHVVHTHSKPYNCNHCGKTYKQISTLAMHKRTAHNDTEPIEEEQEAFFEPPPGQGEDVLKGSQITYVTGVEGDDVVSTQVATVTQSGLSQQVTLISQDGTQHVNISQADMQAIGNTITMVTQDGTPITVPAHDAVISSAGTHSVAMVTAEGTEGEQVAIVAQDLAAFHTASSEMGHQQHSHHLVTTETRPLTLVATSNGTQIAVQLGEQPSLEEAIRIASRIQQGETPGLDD

B1: ESPL1 promoter site 1 (dsDNA)
DNA 1: TTACCCGCCGCGCTGCGCG
DNA 2: CGCGCAGCGCGGCGGGTAA
B2: CDCA4 promoter site (dsDNA)
DNA 1: GCTCCCAGGTCTCCGCGCG
DNA 2: CGCGCGGAGACCTGGGAGC
B3: MCM4 promoter site 1 (dsDNA)
DNA 1: GTACCCACCCAGCACCGCG
DNA 2: CGCGGTGCTGGGTGGGTAC
B4: MCM3 promoter site (dsDNA)
DNA 1: ACTCCCAGAACGCAATGCC
DNA 2: GGCATTGCGTTCTGGGAGT
B5: CDT1 promoter site 2 (dsDNA)
DNA 1: CCTCCCCCCGTGCTCTGCC
DNA 2: GGCAGAGCACGGGGGGAGG
B6: MCM5 promoter site (dsDNA)
DNA 1: GTGCCCATTTTGCATTGGG
DNA 2: CCCAATGCAAAATGGGCAC
B7: ESPL1 promoter site 2 (dsDNA)
DNA 1: ACTCCCAGCGTGCCGCGCG
DNA 2: CGCGCGGCACGCTGGGAGT
B8: CCNE2 promoter site (dsDNA)
DNA 1: CTTCCCACCCGGCCAGGTC
DNA 2: GACCTGGCCGGGTGGGAAG
B9: BIRC5 (survivin) promoter site (dsDNA)
DNA 1: GCCCCCACCCTCCACTGGG
DNA 2: CCCAGTGGAGGGTGGGGGC
B10: MCM4 promoter site 2 (dsDNA)
DNA 1: TTTCCCGGGGACCCCTGCG
DNA 2: CGCAGGGGTCCCCGGGAAA
B11: UHRF1 promoter site (dsDNA)
DNA 1: ACTCCCAGGATGCCCTTCC
DNA 2: GGAAGGGCATCCTGGGAGT
B12: BUB1 promoter site (dsDNA)
DNA 1: TCTCCCCACCTGCCTCCCG
DNA 2: CGGGAGGCAGGTGGGGAGA
B13: CCNF promoter site (dsDNA)
DNA 1: ACCCCCAGCTTGCACGGCC
DNA 2: GGCCGTGCAAGCTGGGGGT
B14: PLK1 promoter site 2 (dsDNA)
DNA 1: GCTCCCATGGTGCCGCGCG
DNA 2: CGCGCGGCACCATGGGAGC
B15: CDKN2C promoter site (dsDNA)
DNA 1: ATCCCCAAAATCCAAGCCA
DNA 2: TGGCTTGGATTTTGGGGAT
B16: SPBC25 promoter site (dsDNA)
DNA 1: ACTACGAATCCCAGAATGCCCTGTT
DNA 2: AACAGGGCATTCTGGGATTCGTAGT
B17: GTSE1 promoter site (dsDNA)
DNA 1: ACTACAATACCCAGGACGCACCCAG
DNA 2: CTGGGTGCGTCCTGGGTATTGTAGT
B18: PLK1 promoter site 1 (dsDNA)
DNA 1: CAGGGCGCTCCCATGGTGCCGCGCG
DNA 2: CGCGCGGCACCATGGGAGCGCCCTG
B19: RFC4 promoter site (dsDNA)
DNA 1: CCAGCCTAGCCCACTGTGCATGAAG
DNA 2: CTTCATGCACAGTGGGCTAGGCTGG
B20: ZNF367 (CDC14B) promoter site (dsDNA)
DNA 1: CGGGTCCTTCCCACCTCGCCATTGG
DNA 2: CCAATGGCGAGGTGGGAAGGACCCG
B21: CDCA3 promoter site (dsDNA)
DNA 1: GACGTAGTTCCCATAGGCCCTCCAC
DNA 2: GTGGAGGGCCTATGGGAACTACGTC
B22: MCM2 promoter site (dsDNA)
DNA 1: CCTCGGCTTCCCAAAGTGCTGGGAT
DNA 2: ATCCCAGCACTTTGGGAAGCCGAGG
B23: CDC2L6 promoter site 2 (dsDNA)
DNA 1: ACTTCATTTCCCAGGAGCCTCCGCG
DNA 2: CGCGGAGGCTCCTGGGAAATGAAGT
B24: CDC2L6 promoter site 1 (dsDNA)
DNA 1: AATACAGCTCCCAGGTTACCTCGGG
DNA 2: CCCGAGGTAACCTGGGAGCTGTATT
B25: PFS2 promoter site (dsDNA)
DNA 1: TCTCGACTTCCCAAAGTGCTGGGAT
DNA 2: ATCCCAGCACTTTGGGAAGTCGAGA
B26: CDK2 promoter site (dsDNA)
DNA 1: CATTGCTTTCCCATCCTGCTACTCA
DNA 2: TGAGTAGCAGGATGGGAAAGCAATG
B27: CDCA8 promoter site 2 (dsDNA)
DNA 1: CCCGCCCTCCCCACCAACCCACCCG
DNA 2: CGGGTGGGTTGGTGGGGAGGGCGGG
B28: CDCA5 promoter site (dsDNA)
DNA 1: TGCGCCTCTCCCTTCAGCCCCGGCC
DNA 2: GGCCGGGGCTGAAGGGAGAGGCGCA
B29: CDC6 promoter site (dsDNA)
DNA 1: ACTACGCCTCCCAGCGTGCTTTGCG
DNA 2: CGCAAAGCACGCTGGGAGGCGTAGT
B30: CDT1 promoter site 1 (dsDNA)
DNA 1: CCCTTCCCTCCCCCCGTGCTCTGCC
DNA 2: GGCAGAGCACGGGGGGAGGGAAGGG
B31: CCNA2 promoter site (dsDNA)
DNA 1: CAGGCACTGCCCAGCGTGGCGAGCC
DNA 2: GGCTCGCCACGCTGGGCAGTGCCTG
B32: RFC2 promoter site (dsDNA)
DNA 1: GGTGGAATTCCCATCTTGCAGCCGA
DNA 2: TCGGCTGCAAGATGGGAATTCCACC
B33: WEE1 promoter site (dsDNA)
DNA 1: TTAATCTGTCCCTTAATGCACTTAC
DNA 2: GTAAGTGCATTAAGGGACAGATTAA
B34: CDCA8 promoter site 1 (dsDNA)
DNA 1: ACTACTACTCCCGGCAGGCCTTGTG
DNA 2: CACAAGGCCTGCCGGGAGTAGTAGT
B35: AURKB promoter site (dsDNA)
DNA 1: CCTCGGCTTCCCAAAATGCTGGGAT
DNA 2: ATCCCAGCATTTTGGGAAGCCGAGG

What follows are binders tested against T1, ZNF143 (assay: EMSA; also ChIP).

Q: Does B1 bind?
A: binds

Q: Does B2 bind?
A: binds

Q: Does B3 bind?
A: binds

Q: Does B4 bind?
A: binds

Q: Does B5 bind?
A: binds

Q: Does B6 bind?
A: binds

Q: Does B7 bind?
A: binds

Q: Does B8 bind?
A: binds

Q: Does B9 bind?
A: binds

Q: Does B10 bind?
A: binds

Q: Does B11 bind?
A: binds

Q: Does B12 bind?
A: binds

Q: Does B13 bind?
A: binds

Q: Does B14 bind?
A: binds

Q: Does B15 bind?
A: binds

These binders were tested against T1, ZNF143 (assay: EMSA; also ChIP; binding retained without 5'-terminal 6 bases).

Q: Does B16 bind?
A: binds

Q: Does B17 bind?
A: binds

Q: Does B18 bind?
A: binds

Q: Does B19 bind?
A: binds

Q: Does B20 bind?
A: binds

Q: Does B21 bind?
A: binds

Q: Does B22 bind?
A: binds

Q: Does B23 bind?
A: binds

Q: Does B24 bind?
A: binds

Q: Does B25 bind?
A: binds

Q: Does B26 bind?
A: binds

Q: Does B27 bind?
A: binds

Q: Does B28 bind?
A: binds

Q: Does B29 bind?
A: binds

Q: Does B30 bind?
A: binds

Q: Does B31 bind?
A: binds

Q: Does B32 bind?
A: binds

Q: Does B33 bind?
A: binds

Q: Does B34 bind?
A: binds

Q: Does B35 bind?
A: binds
